According to patent US20250108100A1, “C-TERMINAL FRAGMENT OF APOLIPOPROTEIN E AND APPLICATION THEREOF IN INHIBITING y-SECRETASE ACTIVITY” (SYNPHATEC (SHANGHAI) BIOPHARMACEUTICAL TECHNOLOGY CO., LTD., priority 2022, published 2025):
“Also recorded” adds a separate entry of the source.

Tests used:
[1] = system: APPΔΔICD; experiment: Aβ40 produced from APPΔΔICD co-expressed with BACE1 in HEK 293T cells (ELISA); format: cell-based, human
Protocol: The experiment was performed according to the standard procedure in the ELISA analysis kit of Invitrogen Company. • a) The target protein was expressed in HEK 293T cell line. Cells were subcultured one day before transfection, and transfection was performed when the degree of cell adhesion reached 70%-80%. […]
48 hours after transfection of HEK 293T cells and N2A cells, or 4.5 days after lentivirus infection of neurons, media and lysates were collected. Aβ40 and Aβ42 in the culture medium and cell lysates were detected by an Aβ ELISA kit as indicated in the protocol. […]

[2] = system: APPSW; experiment: Aβ40 produced by Swedish APP mutant (APPSW) in HEK 293T cells (ELISA); format: cell-based, human; conditions: HEK 293T cells expressing APPSW
Protocol: (§1) 48 hours after transfection of HEK 293T cells and N2A cells, or 4.5 days after lentivirus infection of neurons, media and lysates were collected. Aβ40 and Aβ42 in the culture medium and cell lysates were detected by an Aβ ELISA kit as indicated in the protocol. (Invitrogen Technology; KHB3481 for human Aβ40, KHB3441 for human Aβ42 and KMB3481 for mouse Aβ40).

[3] = system: γ-secretase (PS1, PS2) knockout HEK 293T cells; experiment: PS1 KO, PS2 KO and PS1/2 dKO HEK 293T cell lines: α-CTF and Aβ40; format: cell-based, human
Protocol: • a) A plasmid expressing the target protein in mammalian cells was constructed, and the protein expression promoter is CAG. • b) The target protein was expressed in HEK 293T cell line. Cells were subcultured one day before transfection, and transfection was performed when the degree of cell adhesion reached 70%-80%. The transfection reagent was lipofectamine2000 (ThermoFisher). • c) 4-6 hours post transfection, the medium were replaced with fresh cell culture medium. • d) 36-48 hours post transfection, the cells were lysed (10% 1M tris-HCl (pH=6.8), 4% SDS, 20% glycerol, 0.01% bromophenol blue), and the protein samples were collected and used for Western blot or stored in a −80° C. freezer. • e) Polyacrylamide gel electrophoresis. Before protein loading, the protein was boiled at 98° C. for 10 min, and then centrifuged at 12000 rpm for 10 min. Electrophoresis: 80V for the upper stacking gel; 120V for the lower separating gel. • f) Protein transfer. The filter paper was soaked in the electrophoresis solution before use, and the PVDF membrane was put in methanol for 10s to activate, and the gel after electrophoresis was taken out from the electrophoresis tank, put in the order of filter paper—PVD membrane—gel-filter paper from bottom to top, and they were put into the transfer instrument, with transferring in constant current at 0.1 A for 70 min. • g) Blocking and antibody incubation: the transferred PVDF membrane was placed in 5% BSA/TBST blocking solution, and blocked on a shaker at room temperature for 1 hour. The primary antibody was used to incubate at 4° C. overnight on a shaker (12-16 h); 1×TBST was used to wash three times, once every 10 minutes; the secondary antibody was used to incubate, shaked at room temperature for 1-2 h; 1×TBST was used to wash three times, once every 10 minutes. • h) Imaging by development: development was performed with ECL chemiluminescence hypersensitive chromogenic reagent.
The experiment was performed according to the standard procedure in the ELISA analysis kit of Invitrogen Company. • a) The target protein was expressed in HEK 293T cell line. Cells were subcultured one day before transfection, and transfection was performed when the degree of cell adhesion reached 70%-80%. The transfection reagent was lipofectamine2000 (ThermoFisher). • b) 4-6 hours post transfection, medium were replaced with fresh cell culture medium. • c) 36-48 hours post transfection, the cell culture medium was collected, and then the ELISA process was performed or the cell culture medium was frozen in a −80° C. refrigerator. • d) 50 μl of standard samples and experimental samples were added to each well of the 96-well plate. • e) 50 μl of human-derived Aβ40 or Aβ42 or mouse-derived Aβ40 detection antibody was added to each well of the 96-well plate. • f) The above samples were shaken gently and placed at room temperature for 3 hours. • g) The liquid in the well were removed, and the plate was washed 4 times with 1× wash buffer. • h) 100 μl of the buffer containing 1× anti-Rabbit IgG HRP was added. • i) The plate was shaken gently and placed at room temperature for […]. • j) The liquid in the well were removed, and the well was washed 4 times with 1× wash buffer. • k) 100 μl of Stabilized Chromogen was added to each well, and the plate was placed in the dark for 30 minutes at room temperature. • l) 100 μl of Stop Solution was added to each well. • m) The absorbance at 450 nm was measured with a microplate reader. 2.4 qRT-PCR […]

[4] = system: APP and BACE1 co-expressed in N2A cells; experiment: Aβ40 ELISA in N2A cells co-expressing APP and BACE1; format: cell-based, mouse
Protocol: as §1
Data were analyzed by GraphPad Prism software (v6) using unpaired, paired, or one-sample t-tests. Aβ40 and Aβ42 levels were normalized to the corresponding GFP controls. α-CTF levels were normalized to FL-APP and corresponding GFP controls. All data are represented as mean±SEM. Statistical significance was defined as p<0.05. One, two, three and four stars (*) in the graph indicate p-values <0.05, <0.01, <0.001 and <0.0001, respectively.

B1: ApoE CT: C-terminal fragment of ApoE, positions 216-299 of SEQ ID NO: 12; SEQ ID NO: 33 (protein)
chain: ARMEEMGSRTRDRLDEVKEQVAEVRAKLEEQAQQIRLQAEAFQARLKSWFEPLVEDMQRQWAGLVEKVQAAVGTSAAPVPSDNH
- Aβ40 produced by APPΔΔICD [1]: no longer reduces Aβ produced by APPΔΔICD; also recorded: does not affect Aβ40; also recorded: failed to reduce Aβ40
- Aβ40 in cell lysates, reduced by [2]: approximately 43%
- Aβ40 in the medium, reduced by [2]: approximately 76%
- Aβ40 in PS1/2 dKO cells supplemented with PS2 ([3]; ELISA): can reduce Aβ40; also recorded: significantly reduced Aβ40
- α-CTF in PS1/2 dKO cells ([3]; PS1 and PS2 double knockout HEK 293T cells): does not further increase α-CTF; also recorded: did not further increase α-CTF levels
- α-CTF in PS1 KO cells ([3]; PS1 single knockout HEK 293T cells): still able to increase α-CTF
- α-CTF in PS2 KO cells ([3]; PS2 single knockout HEK 293T cells): still able to increase α-CTF
- α-CTF in PS1/2 dKO cells supplemented with PS1 or PS2 ([3]; rescued expression of PS1 or PS2): can significantly increase α-CTF; also recorded: again significantly increased α-CTF
- total Aβ40 [4]: significantly reduced
